Data on 3 molecules can be found in publication PMC4522616 (Emerging Microbes & Infections, 2015).

In test [1] the target is JR-FL Env on pseudovirions (HIV-1 JR-FL (clade B), UniProt Q75760, strain). The test is described as follows: virus capture assay.
Test [2] has as its target gp120 of HIV-1 96ZM651 (clade C) (HIV-1 group M subtype C, isolate 96ZM651, strain). Nature of the test: ELISA. (In general: ELISA stands for enzyme-linked immunosorbent assay.)
Test [3] addresses gp120 of HIV-1 BaL (clade B) (HIV-1 group M subtype B, isolate BaL …, UniProt Q2MKA8, strain). Nature of the test: ELISA.
For test [4], the target named is gp120 of HIV-1 93MW965 (clade C) (HIV-1 group M subtype C, isolate …, strain). Nature of the test: BLI. (In general: BLI is a label-free optical method that tracks binding on a fibre tip over time.)
The target of test [5] is gp120 of HIV-1 JR-FL (clade B) (HIV-1). The test is described as follows: BLI.
For test [6], the target named is T1, C4 peptide VGKAMYAPPIRGQIR (gp120 residues 430 to 444, HXB2 numbering) (HIV-1).
T1 chain: VGKAMYAPPIRGQIR
The test is described as follows: crystal structure.

B1: rabbit monoclonal antibody R56 (antibody, V domains shown)
VH: QSLEESGGDLVQPGASLTLTCKASGFSFGNNYDMCWVRQAPGKGLEWIGCIETGSSDSAAYATWAKGRFTISKTSSTTVTLQMTSLTAADTATYFCARNFDLWGPGTLVIVSS
VL: QVLTQTPSSVSTAVGSAVTINCQSSQNVYSNNNLAWFQQKPGQPPRLLIYDASKLASGVPSRFKGSGSGTQFTFTISDVQCDDAATFYCLGGYDCSSGDCAAFGGGTEVVVR
In the case of B1, the binding result in test [1] is on record as “binds”.

B2: rabbit monoclonal antibody R53 (antibody, V domains shown)
VH: QSLEESGGGPVKPGGTLTLTCKASGIDFSSFYYMCWVRQAPGKGLEWIACIVTDITGESYYATWAKGRFAISKTSSTTVTLQMTSLTAADTATYFCARGDTYGYGDTVYALNLWGPGTLVTVSS
VL: GPVLTQTPPSASEPVGGTVTIKCQASQAIDEYLGWYQQKPGQRPKLLMYYASTLASGVPSRFKGSGSGTQFTLTISDLECADAATYYCQNYYVGSSTNYAFTFGGGTEVVVK
By Kd is commonly meant the free concentration of one partner at which half of the binding sites on the other are occupied at equilibrium, for simple one-to-one binding. The term koff denotes the first-order rate constant of dissociation. What is called kon is the rate constant with which the complex forms. Read a low kon as slow association. B2: the binding result in test [2] and in test [3] was “binds” each time. Further, the Kd in test [4] was found to be 3.98 nM; in test [5], 1.96 nM. In addition, the koff stood at 0.00121 s⁻¹ in test [4] and 0.000309 s⁻¹ in test [5]. For the same molecule, the values for the association rate constant (kon) in test [4] and in test [5] were 304000 M⁻¹ s⁻¹ and 157000 M⁻¹ s⁻¹, respectively.

B3: R53 antigen-binding fragment (Fab) (Fab, V domains shown)
VH: QSLEESGGGPVKPGGTLTLTCKASGIDFSSFYYMCWVRQAPGKGLEWIACIVTDITGESYYATWAKGRFAISKTSSTTVTLQMTSLTAADTATYFCARGDTYGYGDTVYALNLWGPGTLVTVSS
VL: GPVLTQTPPSASEPVGGTVTIKCQASQAIDEYLGWYQQKPGQRPKLLMYYASTLASGVPSRFKGSGSGTQFTLTISDLECADAATYYCQNYYVGSSTNYAFTFGGGTEVVVK
With B3, the binding result in test [6] is “binds”.
